A word on the Kd: it is the free concentration of one partner at which half of the binding sites on the other are occupied at equilibrium, for simple one-to-one binding. In general, koff refers to a measure of how fast the partners let go of each other. A lower koff goes with slow dissociation. One may read the kon as a measure of how fast the partners come together. A word on the EC50 (read off the curve): it is the concentration at which the effect is half-maximal.

Sequences and labels used below:
B1: Recombinant hIL21R protein (receptor)
chain: not shown
notes: also called human IL21 receptor; Hu-IL21R

In one experiment the target is T1, LC0030-1 (Homo sapiens (Human), UniProt P0DOX7 1-214; P0DOX5 2-449 = IgG part).
T1 construct: Antibody-cytokine fusion (immunocytokine) made by Sortase A conjugation; also called fusion protein prepared from Ab0030 containing one hIL21 (isoform 1); DAR1
Description: ELISA, recombinant hIL21R coated at 0.5 ug/mL, detection with anti-human-IgG (H+L)-HRP, OD450. How it is done: (§1) The binding activities of the fusion proteins to human IL21 receptor (hIL21R or Hu-IL21R) were determined using ELISA. Recombinant hIL21R protein were diluted using coating buffer (1×PBS) to 0.5 μg/mL and coated to an ELISA plate at 4° C. overnight. The plate was blocked with 5% slim milk powder in coating buffer at 37° C. for 1 h. […] Finally, 1:5000 diluted anti-human-IgG (H+L)-HRP was added. After an incubation at 37° C. for 1 h, TMB substrate was added for color development. The data was collected using a microplate reader.
Background: An ELISA detects its analyte on a solid surface through an enzyme-linked reagent.

The target of experiment [1] is B1. The experiment is described as above. How it is done: as §1
Experiment [2] deals with T2, His-tagged human PD-L1 (hPD-L1-His) (human, UniProt Q9NZQ7 19-238, limits assumed).
T2 construct: not shown: His tag
The experiment in a line: SPR (Biacore T200), Ab0033 captured on Protein A chip, hPD-L1-His 100 nM as analyte, 1:1 Langmuir fit. As to the method:
(§2) The Biacore T200 biosensor is equipped with Sensor Chip Protein A. The proteins (diluted to 1 μg/mL) to be tested were injected at 10 μL/min into the Biacore T200 biosensor for 50 sec, in order to reach the required protein density (about 300 RU). Then His-tagged human IL21R (hIL21R-His, 200 nM) or human PD-L1 (hPD-L1-His, 100 nM) were injected at 30 μL/min into the system for 180 sec. The dissociation was monitored for 600 sec. After each cycle, glycine buffer pH 1.7 (30 μL/min, 30 sec) was used to regenerate the chip.
Data were processed with Biacore T200 evaluation software 3.0. The binding kinetics were analyzed by globally fitting the data with the 1:1 Langmuir binding model to obtain the association rate (kₒₙ) and dissociation rate (koff). The affinity (KD) was calculated using the formula: KD=koff/kₒₙ.

The target in experiment [3] is T3, His-tagged human IL21R (hIL21R-His) (human, UniProt Q9HBE5 20-232, limits assumed).
T3 construct: not shown: His tag
Description: SPR (Biacore T200), Ab0033 captured on Protein A chip, hIL21R-His as analyte. How it is done: as §2

Experiment [4] deals with T4, Recombinant hPD-L1 protein (Acrobiosystems, PD1-H5253) (human, UniProt Q9NZQ7 19-238).
T4 construct: also called human PD-L1
Description: ELISA, recombinant hPD-L1 coated at 0.5 ug/mL, detection with anti-human-IgG (H+L)-HRP, OD450. How it is done:
Recombinant hPD-L1 was diluted in coating buffer (1×PBS) to 0.5 μg/mL and coated to an ELISA plate at 4° C. overnight. The plate was blocked with 5% slim milk powder in coating buffer at 37° C. for 1 h. […] Finally, 1:5000 diluted anti-human-IgG (H+L)-HRP was added. After an incubation at 37° C. for 1 h, TMB substrate was added for color development. The data was collected using a microplate reader.

The target of experiment [5] is T4, Recombinant hPD-L1 protein …. The experiment in a line: ELISA, recombinant hPD-L1 (Acrobiosystems PD1-H5253) coated at 0.5 ug/mL, detection with anti-human-IgG (H+L)-HRP, OD450. How it is done:
The binding activities of the fusion proteins to human PD-L1 (hPD-L1) were determined using ELISA. […] The plate was blocked with 5% slim milk powder in the coating buffer at 37° C. for 1 h. […] Finally, 1:5000 diluted anti-human-IgG (H+L)-HRP was added. After an incubation at 37° C. for 1 h, TMB substrate was added for color development. The data was collected using a microplate reader.

T2 sequence (Q9NZQ7 19-238 limits assumed): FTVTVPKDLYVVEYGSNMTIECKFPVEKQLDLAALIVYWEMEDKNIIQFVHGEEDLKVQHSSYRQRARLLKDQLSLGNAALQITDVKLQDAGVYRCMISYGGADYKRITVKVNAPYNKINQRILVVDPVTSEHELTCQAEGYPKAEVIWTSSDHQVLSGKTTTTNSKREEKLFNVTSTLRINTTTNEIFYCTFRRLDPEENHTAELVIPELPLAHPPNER
T4 sequence (Q9NZQ7 19-238 limits assumed): as above

As to B1, the binding result with LC0030-1 is reported as “binds”.

B2: Ab0033 (antibody, human IgG1, kappa, N297A, V domains shown)
VH: QVQLQESGPGLVKPSETLSLTCTVSGYSITSGYNWHWIRQFPGNGLEWMGYIHHSSITNYNPSLKSRITISRDTSKNQFSLKLSSVTAADTATYYCAREGYDYDWFAYWGQGTLVTVSS
VL: DIVLTQSPDFQSVTPKEKVTITCRASQSISNNLHWYQQKPDESPKLLIKYASQSISGIPSRFSGSGSGTDFTLTINSVEAEDFAMYFCQQSKSWPFTFGQGTRLEIKR
notes: Signal peptides are not part of the purified protein; also called antibody moiety Ab0033; derived from Ab0002 (3F2)
Regarding B2, the binding result in experiment [1] was “no binding (tested: about 40 nM)”; in experiment [3], “no binding (tested: 200 nM)”. Further, binding in experiment [2] was put at a Kd of 0.608 nM. This molecule also displayed a koff in experiment [2] of 0.0012 s⁻¹. The kon in experiment [2] stood at 1.98e+06 M⁻¹ s⁻¹. Also, the “EC50 (read off the curve)” value in experiment [4] is around 0.1 nM; in experiment [5], around 0.08 nM.

Source of the values: patent US20250043005A1 (GENEQUANTUM HEALTHCARE SUZHOU, published 2025).
